Laboratory results reported in publication PMC7962911, “Modular Synthesis of Trifunctional Peptide-oligonucleotide Conjugates via Native Chemical Ligation” (Frontiers in Chemistry, 2021).

Legend:
[1] = concentration range of 20–30 µm; peptides alone and as conjugate to ASOs; ref Neundorf et al., 2009; Shabanpoor et al., 2017; cited from earlier work
Source text: We chose an FDA-approved oligonucleotide sequence (Table 1) targeting survival motor neuron-2 (SMN2) mRNA splice correction as a model ASO (in PNA chemistry) for conjugation to a previously characterized CPP derived from the receptor-binding domain of Apolipoprotein E [ApoE(133–150)] ([Meloni et al., 2020]). In order to synthesize trifunctional conjugates, three different functional moieties were selected for conjugation to the side-chain of […] that was generated during NCL of CPP-ASO. These functional moieties include the FDA-approved oligonucleotide sequence as above but incorporated in ...

[2] = test system: SMA patient-derived fibroblasts; assay: Confocal microscopy of Cy5 fluorescent uptake; format: cell-based, human; settings: 1 and 2 µm in OptiMEM without serum, 1 h at 37°C, Cy5 excitation 633 nm
Protocol: For fluorescent uptake studies, SMA fibroblast cells were plated at a density of 60,000 cells/well of a µ-Slide 4 Well ^Ph+ Glass Bottom chamber slides precoated with poly-L-ornithine. The cells reached 80% confluency after 24 h. They were treated with Cy5-labelled peptide-PNA conjugates made up at a concentration of 1 and 2 µm in OptiMEM without serum for 1 h at 37°C. At 15 min to the end of incubation time, Hoechst (1:1,000 dilution) was added to each well. Cells were washed with PBS and images of cells were taken using the Leica SP8 Resonant Scanning microscope with 63×/1.4 oil objective. The images were acquired at the Cy5-specific excitation of 633 nm and emission of 638–779 nm and Hoechst excitation and emission of 405 nm and 410–585 nm, respectively.

[3] = test system: full-length SMN2 mRNA; assay: SMN2 exon-inclusion assay (RT-qPCR of full-length SMN2 mRNA); format: cell-based, human; settings: SMA patient-derived fibroblasts (Type-I, GM03813), conjugates 1 and 2 µm in serum-free Opti-MEM for 4 h at 37°C, then growth medium for 20 h, ∆∆Ct vs HPRT1, normalized to untreated = 1, mean ± SEM, N = 3

ApoE: previously characterized CPP derived from the receptor-binding domain of Apolipoprotein E (LRVRLASHLRKLRKRLLR; UniProt P02649 151-168, looked up, fragment)
cytotoxic effect [1]: no significant cytotoxic effect

Ac-LRVRLASHLRKLRKRLLR-X-G-C-X-ATTCACTTTCATAATGCTGG | Cy5 [C2, Cy5-labelled ApoE-PNA conjugate, fluorophore on the cysteine thiol of C1]
uptake in fibroblasts (Cy5 fluorescence) [2]: concentration-dependent increase in uptake

Ac-LRVRLASHLRKLRKRLLR-X-G-C-X-ATTCACTTTCATAATGCTGG | Mal-ATTCACTTTCATAATGCTGG [C3, trifunctional conjugate of C1 with maleimide-PMO (SMN2) on the cysteine thiol]
antisense activity (change in the level of full-length SMN2 mRNA) [3]: higher activity compared to the peptide-PNA (C1) conjugate
